Reference: publication PMC3378601

Key:
[1] = biological target: NM, the prion domain (N and M domains) of the yeast translation termination factor Sup35, untagged (yeast) (UniProt P05453)
[2] = biological target: NM, the prion domain (N and M domains) of the yeast translation termination factor Sup35, untagged (yeast) (UniProt P05453); remark: listed apart in the source
[3] = biological target: NM, the prion domain (N and M domains) of the yeast translation termination factor Sup35, untagged (yeast) (UniProt P05453); remark: listed apart in the source

Sequence of NM, the prion domain (N and M domains) of the yeast translation termination factor Sup35, untagged (yeast) (P05453 1-253): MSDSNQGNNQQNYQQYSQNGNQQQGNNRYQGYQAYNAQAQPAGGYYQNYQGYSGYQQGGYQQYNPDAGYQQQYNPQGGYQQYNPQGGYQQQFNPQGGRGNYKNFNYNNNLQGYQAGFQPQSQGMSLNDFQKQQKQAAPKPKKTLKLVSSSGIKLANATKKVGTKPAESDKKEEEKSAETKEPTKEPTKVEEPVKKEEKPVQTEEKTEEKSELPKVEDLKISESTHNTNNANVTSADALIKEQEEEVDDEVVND

## Hsp26, yeast small heat shock protein (from UniProt P15992 1-214) (natural protein)
[1]
  pyrene excimer fluorescence of fibers of single cysteine NM mutants after 60 min with Hsp26 (10 µM); reduction at N-terminal positions 2 and 7 (slightly reduced in Head 21-38 and Tail 86-106): 2 fold
[2]
  inhibition of seeded NM fibrillization by Hsp26 pretreated at 45°C for 10 min, ThT fluorescence; IC50: > 24 µM
[3]
  inhibition of NM (5 µM) fibrillization seeded by preformed NM fibers (5% wt/wt), 12 h at 25°C, ThT fluorescence; IC50 of Hsp26: 1.9 µM
